The chains are these.
B1: NP_015628.1 (parent)
chain: EQRNSRWNTVLRAVKAKTHHLEP
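Further: lentivirally expressed fusion library, cells FACS-sorted into six equal-sized GFP/DsRed ratio bins, PSI computed from sequencing read fractions per bin weighted by bin number.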

The variants in this data set derive from B1. Description: protein stability index of a GFP-peptide fusion (GPS, HEK-293T) (PSI 1-6); higher = more stable. As to conditions: c terminus: native.
With EQRNSRWNTVLRAMKAKTHHLEP [V14M], the protein stability index stood at 3.07.

Take EQRNSRWNTVLRAGKAKTHHLEP [V14G]: the protein stability index came to 3.31.

Turning to EQRNSRWNTVLRATKAKTHHLEP [V14T], the protein stability index was 2.97.

As for EQRNSRWNTVLRAWKAKTHHLEP [V14W], the protein stability index was 3.26.

As for EQRNSRWNTVLRAYKAKTHHLEP [V14Y], the protein stability index was 2.87.

As to EQRNSRWNTVLRASKAKTHHLEP [V14S], the protein stability index came out at 3.28.

With EQRNSRWNTVLRAFKAKTHHLEP [V14F], the protein stability index came to 2.87.

As to EQRNSRWNTVLRAIKAKTHHLEP [V14I], the protein stability index stood at 3.37.

Turning to EQRNSRWNTVLRAPKAKTHHLEP [V14P], the protein stability index was determined as 2.73.

On to EQRNSRWNTVLRARKAKTHHLEP [V14R], for which the protein stability index is 2.96.

With EQRNSRWNTVLRACKAKTHHLEP [V14C], the protein stability index was 2.73.

For the variant EQRNSRWNTVLRAQKAKTHHLEP [V14Q], the protein stability index is 2.85.

EQRNSRWNTVLRALKAKTHHLEP [V14L]: the protein stability index stood at 3.05.

For EQRNSRWNTVLRAKKAKTHHLEP [V14K], the protein stability index amounted to 3.44.

As to EQRNSRWNTVLRAEKAKTHHLEP [V14E], the protein stability index is 2.45.

With EQRNSRWNTVLRADKAKTHHLEP [V14D], the protein stability index came out at 2.89.

In the case of EQRNSRWNTVLRAHKAKTHHLEP [V14H], the protein stability index is 3.06.

In the case of EQRNSRWNTVLRANKAKTHHLEP [V14N], the protein stability index is 3.1.

On to EQRNSRWNTVLRAAKAKTHHLEP [V14A], for which the protein stability index turned out to be 3.23.

As for EQRNSRWNTVLRAVTAKTHHLEP [K15T], the protein stability index is 2.99.

Turning to EQRNSRWNTVLRAVAAKTHHLEP [K15A], the protein stability index was determined as 3.24.

Turning to EQRNSRWNTVLRAVMAKTHHLEP [K15M], the protein stability index was 3.33.

In the case of EQRNSRWNTVLRAVHAKTHHLEP [K15H], the protein stability index is 3.22.

On to EQRNSRWNTVLRAVDAKTHHLEP [K15D], for which the protein stability index worked out at 3.21.

Take EQRNSRWNTVLRAVWAKTHHLEP [K15W]: the protein stability index was 3.24.

Turning to EQRNSRWNTVLRAVFAKTHHLEP [K15F], the protein stability index is 2.9.

As for EQRNSRWNTVLRAVSAKTHHLEP [K15S], the protein stability index turned out to be 3.26.

With EQRNSRWNTVLRAVCAKTHHLEP [K15C], the protein stability index was determined as 3.1.

For EQRNSRWNTVLRAVRAKTHHLEP [K15R], the protein stability index came to 3.08.

As to EQRNSRWNTVLRAVGAKTHHLEP [K15G], the protein stability index was determined as 3.31.

As to EQRNSRWNTVLRAVPAKTHHLEP [K15P], the protein stability index stood at 3.14.

As for EQRNSRWNTVLRAVIAKTHHLEP [K15I], the protein stability index was found to be 3.1.

Turning to EQRNSRWNTVLRAVLAKTHHLEP [K15L], the protein stability index stood at 3.07.

EQRNSRWNTVLRAVYAKTHHLEP [K15Y]: the protein stability index amounted to 3.25.

For EQRNSRWNTVLRAVVAKTHHLEP [K15V], the protein stability index came to 3.11.

With EQRNSRWNTVLRAVNAKTHHLEP [K15N], the protein stability index was determined as 3.17.

Regarding EQRNSRWNTVLRAVQAKTHHLEP [K15Q], the protein stability index is 3.05.

Regarding EQRNSRWNTVLRAVEAKTHHLEP [K15E], the protein stability index amounted to 3.25.

EQRNSRWNTVLRAVKIKTHHLEP [A16I]: the protein stability index came out at 2.73.

On to EQRNSRWNTVLRAVKEKTHHLEP [A16E], for which the protein stability index was found to be 2.37.

With EQRNSRWNTVLRAVKFKTHHLEP [A16F], the protein stability index worked out at 3.02.

As for EQRNSRWNTVLRAVKNKTHHLEP [A16N], the protein stability index came to 2.35.

Take EQRNSRWNTVLRAVKDKTHHLEP [A16D]: the protein stability index turned out to be 2.82.

EQRNSRWNTVLRAVKMKTHHLEP [A16M]: the protein stability index was 2.9.

Consider EQRNSRWNTVLRAVKHKTHHLEP [A16H], for which the protein stability index amounted to 2.98.

Regarding EQRNSRWNTVLRAVKGKTHHLEP [A16G], the protein stability index came out at 2.77.

On to EQRNSRWNTVLMAVKAKTHHLEP [R12M], for which the protein stability index stood at 2.8.

EQRNSRWNTVLHAVKAKTHHLEP [R12H]: the protein stability index came to 2.98.

For EQRNSRWNTVLTAVKAKTHHLEP [R12T], the protein stability index stood at 3.07.

With EQRNSRWNTVLLAVKAKTHHLEP [R12L], the protein stability index worked out at 2.76.

In the case of EQRNSRWNTVLYAVKAKTHHLEP [R12Y], the protein stability index was found to be 2.5.

For the variant EQRNSRWNTVLVAVKAKTHHLEP [R12V], the protein stability index was 2.47.

On to EQRNSRWNTVLGAVKAKTHHLEP [R12G], for which the protein stability index was determined as 2.78.

For EQRNSRWNTVLDAVKAKTHHLEP [R12D], the protein stability index is 2.44.

Regarding EQRNSRWNTVLCAVKAKTHHLEP [R12C], the protein stability index turned out to be 2.74.

As for EQRNSRWNTVLNAVKAKTHHLEP [R12N], the protein stability index was 3.21.

For EQRNSRWNTVLQAVKAKTHHLEP [R12Q], the protein stability index came out at 2.71.

As for EQRNSRWNTVLIAVKAKTHHLEP [R12I], the protein stability index was 2.46.

For EQRNSRWNTVLPAVKAKTHHLEP [R12P], the protein stability index turned out to be 3.05.

Take EQRNSRWNTVLEAVKAKTHHLEP [R12E]: the protein stability index is 2.79.

Take EQRNSRWNTVLKAVKAKTHHLEP [R12K]: the protein stability index was determined as 2.97.

For EQRNSRWNTVLWAVKAKTHHLEP [R12W], the protein stability index came to 2.67.

As for EQRNSRWNTVLAAVKAKTHHLEP [R12A], the protein stability index came to 2.77.

Take EQRNSRWNTVLFAVKAKTHHLEP [R12F]: the protein stability index turned out to be 2.41.

For EQRNSRWNTVLSAVKAKTHHLEP [R12S], the protein stability index amounted to 2.57.

As to EQRNSRWNTVLRRVKAKTHHLEP [A13R], the protein stability index came out at 2.57.

Turning to EQRNSRWNTVLRKVKAKTHHLEP [A13K], the protein stability index was determined as 2.87.

On to EQRNSRWNTVLRSVKAKTHHLEP [A13S], for which the protein stability index amounted to 3.

Regarding EQRNSRWNTVLRTVKAKTHHLEP [A13T], the protein stability index was 2.97.

Consider EQRNSRWNTVLRNVKAKTHHLEP [A13N], for which the protein stability index was 3.06.

Regarding EQRNSRWNTVLRGVKAKTHHLEP [A13G], the protein stability index was determined as 2.89.

As to EQRNSRWNTVLRLVKAKTHHLEP [A13L], the protein stability index came out at 2.69.

Take EQRNSRWNTVLRMVKAKTHHLEP [A13M]: the protein stability index was 3.28.

As for EQRNSRWNTVLREVKAKTHHLEP [A13E], the protein stability index was found to be 2.24.

For EQRNSRWNTVLRIVKAKTHHLEP [A13I], the protein stability index is 2.66.

On to EQRNSRWNTVLRYVKAKTHHLEP [A13Y], for which the protein stability index was 3.1.

Consider EQRNSRWNTVLRHVKAKTHHLEP [A13H], for which the protein stability index came out at 2.94.

Regarding EQRNSRWNTVLRDVKAKTHHLEP [A13D], the protein stability index was 2.78.

In the case of EQRNSRWNTVLRWVKAKTHHLEP [A13W], the protein stability index was 2.93.

EQRNSRWNTVLRCVKAKTHHLEP [A13C]: the protein stability index was 3.08.

For EQRNSRWNTVLRFVKAKTHHLEP [A13F], the protein stability index is 2.52.

EQRNSRWNTVLRQVKAKTHHLEP [A13Q]: the protein stability index came out at 2.7.

As to EQRNSRWNTVPRAVKAKTHHLEP [L11P], the protein stability index worked out at 5.12.

Consider EQRNSRWNTVRRAVKAKTHHLEP [L11R], for which the protein stability index is 5.15.

For EQRNSRWNTVVRAVKAKTHHLEP [L11V], the protein stability index turned out to be 2.5.

Regarding EQRNSRWNTVNRAVKAKTHHLEP [L11N], the protein stability index turned out to be 4.51.

Regarding EQRNSRWNTVMRAVKAKTHHLEP [L11M], the protein stability index is 3.19.

Regarding EQRNSRWNTVQRAVKAKTHHLEP [L11Q], the protein stability index came out at 4.63.

For EQRNSRWNTVKRAVKAKTHHLEP [L11K], the protein stability index worked out at 4.86.

Consider EQRNSRWNTVGRAVKAKTHHLEP [L11G], for which the protein stability index worked out at 4.32.

In the case of EQRNSRWNTVFRAVKAKTHHLEP [L11F], the protein stability index was 3.9.

As for EQRNSRWNTVSRAVKAKTHHLEP [L11S], the protein stability index was 4.1.

Regarding EQRNSRWNTVYRAVKAKTHHLEP [L11Y], the protein stability index came to 3.5.

In the case of EQRNSRWNTVWRAVKAKTHHLEP [L11W], the protein stability index amounted to 3.69.

EQRNSRWNTVIRAVKAKTHHLEP [L11I]: the protein stability index came to 2.51.

As to EQRNSRWNTVHRAVKAKTHHLEP [L11H], the protein stability index worked out at 4.49.

Regarding EQRNSRWNTVTRAVKAKTHHLEP [L11T], the protein stability index is 3.12.
